Laboratory results as given in IntAct's records for PubMed 17803912.

B1: Lymphocyte antigen 96 (Homo sapiens), Q9Y6Y9 (parent)
chain: MLPFLFFSTLFSSIFTEAQKQYWVCNSSDASISYTYCDKMQYPISINVNPCIELKRSKGLLHIFYIPRRDLKQLYFNLYITVNTMNLPKRKEVICRGSDDDYSFCRALKGETVNTTISFSFKGIKFSKGKYKCVVEAISGSPEEMLFCLEFVILHQPNSN

Variants of: B1
Conditions: with tlr4_human TLR4, O00206
Sequence of tlr4_human TLR4, O00206 (O00206 whole entry): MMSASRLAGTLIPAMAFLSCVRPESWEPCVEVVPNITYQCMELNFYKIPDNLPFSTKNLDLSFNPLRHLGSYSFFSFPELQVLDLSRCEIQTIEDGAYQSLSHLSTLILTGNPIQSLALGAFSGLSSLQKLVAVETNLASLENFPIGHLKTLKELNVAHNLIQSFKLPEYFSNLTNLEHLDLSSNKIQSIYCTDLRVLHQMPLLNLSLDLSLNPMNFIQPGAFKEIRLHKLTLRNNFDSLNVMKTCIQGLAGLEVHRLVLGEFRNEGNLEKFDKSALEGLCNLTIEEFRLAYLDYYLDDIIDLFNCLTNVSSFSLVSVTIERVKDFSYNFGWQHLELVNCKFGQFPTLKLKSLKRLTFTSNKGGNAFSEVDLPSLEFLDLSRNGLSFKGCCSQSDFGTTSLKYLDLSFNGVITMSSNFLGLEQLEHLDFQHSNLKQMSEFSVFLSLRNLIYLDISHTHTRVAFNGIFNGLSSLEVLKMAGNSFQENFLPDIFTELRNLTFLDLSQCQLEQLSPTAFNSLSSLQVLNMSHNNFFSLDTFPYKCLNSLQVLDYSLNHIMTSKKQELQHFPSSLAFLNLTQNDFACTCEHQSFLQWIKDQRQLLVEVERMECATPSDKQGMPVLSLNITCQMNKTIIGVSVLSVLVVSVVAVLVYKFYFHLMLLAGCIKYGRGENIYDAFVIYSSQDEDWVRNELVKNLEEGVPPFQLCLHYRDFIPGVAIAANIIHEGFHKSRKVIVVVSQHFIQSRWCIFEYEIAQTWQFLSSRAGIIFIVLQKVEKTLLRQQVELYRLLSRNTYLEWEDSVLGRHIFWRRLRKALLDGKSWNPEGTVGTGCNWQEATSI

Row | Variant | effect of a mutation on the interaction
1 | F126A | disrupting interaction
2 | H155A | disrupting interaction
